Laboratory results taken from the DeepSol protein solubility set.

experiment: soluble on expression in E. coli; label from the status in PepcDB or PDB records

Sequence | soluble on expression in E. coli
MSLMSSDQQGKCPVDEETKKLWLREHGNEAHPGATAPGNQLECSANPQDNDKTPEYHTTVDLSQSREVSTIPRTNSDRNWIYPSEKQFYEAMMKKNWDPNSDDMKVVVPLHNSINERVWNYIKSWEDKQGGEACGGIKLTNFKGDSKKLTPRAWFRSRILHLAKPFDRHDWQIDRCGKTVDYVIDFYSTDLNDANSQQQPLIYLDVRPKLNSFEGFRLRFWKSLGFEGHHHHHH | soluble
MAITQKRPVYLQLVDRIKNEVATDVLSANDQLPSVRETALQEKINPNTVAKAYKELEAQKVIRTIPGKGTFITGNTASVKNSNQNRLLADLSQVIAELIKSGVKGERIKKIVNDILGGKNAEN | soluble
MGSSHHHHHHSSGRENLYFQGHMAQLYFYYSAMNAGKSTALLQSSYNYQERGMRTVVYTAEIDDRFGAGKVSSRIGLSSPAKLFNQNSSLFDEIRAEHEQQAIHCVLVDECQFLTRQQVYELSEVVDQLDIPVLCYGLRTDFRGELFIGSQYLLAWSDKLVELKTICFCGRKASMVLRLDQAGRPYNEGEQVVIGGNERYVSVCRKHYKEALQVDSLTAIQERHRHD | soluble
MENGHLAKVDLTKKIESKSKYNKKLEKYQRRLLALQQILKEEKIAVMLVMEGWDAAGKGGAIKRVTEHLDPRGFQVDPIGAPAPHEKRYHYLQRFWRKIPQYGQITIFDRSWYGRVLVERVEGFATKEEWMRAYDEINDFEKLLTDDHYIIGKFFYHISKEEQLKRFKDREKNPLKRWKITDEDWRNREKWDEYVEAMEDMFEKTSKPNAKWHIIESNDKLYARVKTLKIIISFIEDYFLEHGIELPSYYYEMKEDIEVLQDVGVKE | not soluble
MGSDKIHHHHHHMFRLQFRLFPPLRTAMHILLTALLKCLSLLPLSCLHTLGNRLGHLAFYLLKEDRARIVANMRQAGMNPDPKTVKAVFAETAKGGLELAPAFFRKPEDIETMFKAVHGWEHVQQALDKHEGLLFITPHIGSYDLGGRYISQQLPFPLTAMYKPPKIKAIDKIMQAGRVRGKGKTAPTSIQGVKQIIKALRSGEATIVLPDHVPSPQEGGEGVWVDFFGKPAYTMTLAAKLAHVKGVKTLFFCCERLPGGQGFDLHIRPVQGELNGDKAHDAAVFNRNAEYWIRRFPTQYLFMYNRYKMP | not soluble
SLKITDDCINCDVCEPECPNGAISQGEEIYVIDPNLCTECVGHYDEPQCQQVCPVDCIPLDDANVESKDQLMEKYRKITGKA | soluble
MKKYADDSLMLHTDLYQINMVETYWEDRMHERRAVFEVFFRKLPFGNGYAVFAGLERVIQFLQQFRFSDSDIDYLRQELGYRDDFLDYLRTLRFTGTVRSMREGEVVFANEPIMRIEAPLAEAQLIETAILNIINFQTLIATKASRIKHILGDEPALEFGSRRAQEMDAALWGARAAYIGGIEATSNVRAGKLFGIPVAGTHAHSMIQAYQDEYTAFLKYARRHKDCVFLVDTYDTLKSGVPNAIRVAKELGDQINFIGIRIDSGDLAYLSKEARKMLDEAGFPNAKIFASNDLDEDTILNLKSQGAKIDVWGIGTKLITAYDQPALGAVYKMVAIENERGEMVDTIKISGNPEKVTTPGLKRVYRIVNKINHKAEGDYIALESENPQQEERLKMFHPVYTFISKFVTNFEARDLHVTIFDNGRLVYTSPPLPDIQAYAKESLRLFWEEYKRTLNPEQYPVDLSQACWDNKMENIRKVKEKIAGASLSE | not soluble
MHHHHHHSSMDDPIGLFVMRPQDGEVTVGGSITFSARVAGASLLKPPVVKWFKGKWVDLSSKVGQHLQLHDSYDRASKVYLFELHITDAQPAFTGGYRCEVSTKDKFDCSNFNLTVHEAM | soluble
MNKTKNYSDETIDAFHRGKFYLVQPRLCGHRSGMDAMLLASLVPNNFKGKVVDLGAGAGAVGLAVAARCLDVHVTLVERSAFMVSYAQKTLMLKQNENLSKRVCLLKADVTLKGRSRLEAGLVDNAFDFAIMNPPFNNPVDRKTPDEKKFEAHVMPESMFDDWLRSAAAIVKPGGYLGLIARPQSLTDILCALEGRFGNICVIPIHARTEKAAIRVLFYAKRGSRAALSLLRPLVIHEDGCHIFSPKIDAINNGHISLWELLK | not soluble
MGSDKIHHHHHHMSTDFKKRNVFFSPPDMTETETRLVVEAIMSGWITTGPKTKEFEKKISAYVHTDKTVCLNSATAAMELALRLIGVGPEDEVIVPAYTYTASASVTQHVGCHLVMVDSNEENQQMDLQKLAEAITERTKVIVPVDLGGVVCEYDKILEILEQKKGLFRPTNELQKKIGRVIISSDCAHAFGSEWKGKMAGEIGDFSSFSFHAVKNLTTAEGGALTWHLPFGNEPIIMDIDTTIPVFEGETWNEFLYRKCQLFSLHGQNKDALAKTKLGSWEYDVIGPWYKCNMTDIMASLGLAQMERYDTMLQKRQKYVERFNEAFKELNVAVLDHKGAEHCSSHHLYIIRLLGKTREQVNDVITKMAERGIATNVHYKPLPMMTAYKTLGFDIKNFPNAYKMFENTMTLPLNTKMTEEDVEYVIENFVDIVKSL | not soluble
MGSDKIHHHHHHMTPEQFEVKANPALWERLGMNVERFSGMPKMLTEAFRGIYLSQKNRPARMEYFDGMIAELHSGRVEELVTAKDAGRPVVGTFCVYVPEEVIMAVGGICVGLCGGSQGSIPDAEKVLPRNICPMVKSAFGFKLGKICPYFQAVDLVYGETTCDAKKKTWELLDREVPTHVMEIPQMKRARDKALWLEEVKDFTSKMEEVSGRKATAEGIGAAIRVMNAKRLALQRLNDLRHHTPSPISGKDMLLIQQIAFYDDPARFTANVNELCDELDERIAAGVAVAPAATPRVMVSGTPMALPNWKLHHLIESAGAVVVNEESCIGTRYYKDLTDESTATVDEQLSLLTDRYMKIDCSCFTPNDDRIEQVLVEYRASGAQGLIDYCLQFCHTYNIEAVKLREMCEREGIPFLAIETDYSPEDVGQLQTRIEAFIEQIRG | not soluble
SRKVFVGGLPPDIDEDEITASFRRFGPLVVDWPHKAESKSYFPPKGYAFLLFQEESSVQALIDACLEEDGKLYLCVSSPTIKDKPVQIRPWNLSDSDFVMD | soluble
MSLQRVSNRLIEQSDIENMPNTWKKQAYRQIAKKLGPKSNFPCIFSKNAYKKGLLQFVFMESISHDQMEELKVCLTEFIEANKEWDHRISTAKPLLIVFSTQAIKSERLEDYHSFGWNVLRSIHALDPSPWPHGVDKDPSSPNWSMCFNGMQLFINMSCPAHKVRRSRNLGDHFIMVVNPRERFDVVAGDNAKGHRVRDEIRGRIEIYDNCKPCKQLGYFGSDTMEWQQYGIIEENKTRTSKCPYKIDEGHHHHHH | soluble
MARIAGVEIPRNKRVDVALTYIYGIGKARAKEALEKTGINPATRVKDLTEAEVVRLREYVENTWKLEGELRAEVAANIKRLMDIGCYRGLRHRRGLPVRGQRTRTNARTRKGPRKTVAGKKKAPRK | soluble
MKIDITDYNHADEILNPQLWKEIEETLLKMPLHVKASDQASKVGSLIFDPVGTNQYIKDELVPKHWKNNIPIPKRFDFLGTDIDFGKRDTLVEVQFSNYPFLLNNTVRSELFHKSNMDIDEEGMKVAIIITKGHMFPASNSSLYYEQAQNQLNSLAEYNVFDVPIRLVGLIEDFETDIDIVSTTYADKRYSRTITKRDTVKGKVIDTNTPNTRRRKRGTIVTY | soluble
MSTGANLLVMNDTCKSNRWWKTKQEKKHSEIKKVKTLKSTWDKKMELKAKKDMVKRVQDNIREKQVQERQEKKERKVEQEKRRLENERKAEIVQKITKIHKLKKTKKRQLRSIQMRDTTQVTK | not soluble
EEPTIGDIYNGKVTSIMQFGCFVQLEGLRKRWEGLVHISELRREGRVANVADVVSKGQRVKVKVLSFTGTKTSLSMKDVDQETGEDLNPNRRRNLV | soluble
MKVISNAEFGGERPLFESHDLRLENVIIRAGESAIKECSNIEAVDCRFEGNYPFWHVHGFVIDRCFFDVGGRSALWYSDNLKMTNTRIDAPKMFREMHDIEIENVEIKDADEVFWRCKNLDIKNLKLHGGTYPFMFSSNIRIDGLESDSKYVFQYVKNVELRNAKITTKDAFWEVENVTIYDSELNGEYLGWHSHNLRLVNCHITGEQPLCYAHDLVLENCTFGPDCDRAFEYSSVQATIKGAIGGVKNPRTGCITAESYGEIILDENIKAPADCKLKLWDEKTCFTD | soluble
MSRRSQWKQVANGMLGDVSKARSVEERENVPEKACGFCKNFSENAYASDGRGYCKKLKVGSDIKVNPPVYVMEGQASLTVLFNSDGAGCEYFNRQDLIDTDGNEVNDPSYRRVQRQMEKAIK | not soluble
